Patent publication US20190359687A1 (Bayer, published 2019)
Changes are numbered by the printed parent chain. Names and notes keep the numbering of the source.

B1: TPP-5348 (Fab, V domains shown)
VH: EVQLVQSGAEVKKPGASVKVSCKASGYTFTTYTIHWVRQAPGQGLEWIGYINPSSDYTRYNPKFKDRVTLTTDKSTSTAYMELRSLRSDDTAVYYCQTGTRDYWGQGTTVTVSS
VL: DIQLTQSPSFLSASVGDRVTITCSAASSVSYIYWFQQKPGKAPKLLIYATSTLPSGVPSRFSGSGSGTEYTLTISSLQPEDFATYYCHQRNSFPFTFGQGTKLEIKR
notes: also called VL: (S49A)
B2: TPP-5350 (Fab, V domains shown)
VH: B1 VH
VL: B1 VL with A49S, P54Q
notes: also called VL: (P54Q)
B3: TPP-7778 scFv with C-terminal 6xHIS tag (scFv)
scFv: DIQLTQSPSFLSASVGDRVTITCRASSSVRYIYWFQQKPGKAPKLLIYATSTLQSGVPSRFSGSGSGTEYTLTISSLQPEDFATYYCHQRNSFPYTFGQGTKLEIKGGGGSGGGGSGGGGSGGGGSEVQLVQSGAEVKKPGASVKVSCKASGYTFTTYAIHWVRQAPGQGLEWMGYINPSSGYTRYNPKFKHRVTMTRDKSTSTAYMELRSLRSDDTAVYYCQTGTRDYWGQGTTVTVSSHHHHHH
B4: TPP-7793 scFv with C-terminal 6xHIS tag (scFv)
scFv: B3 scFv with R30S, T157R, A159T, H192G, Q223W
B5: TPP-7795 scFv with C-terminal 6xHIS tag (scFv)
scFv: B3 scFv with R30S, T52F, A159T, S180K, Y183W, H192G
B6: TPP-7790 scFv with C-terminal 6xHIS tag (scFv)
scFv: B3 scFv with T52F, Q223W
B7: TPP-7794 scFv with C-terminal 6xHIS tag (scFv)
scFv: B3 scFv with T52F, L53R, Q223W
B8: TPP-7782 scFv with C-terminal 6xHIS tag (scFv)
scFv: B3 scFv with T52F, L53R, A159T, H192G
B9: TPP-7783 scFv with C-terminal 6xHIS tag (scFv)
scFv: B3 scFv with T52F, L53R, Q54R, Q223W
B10: TPP-7781 scFv with C-terminal 6xHIS tag (scFv)
scFv: B3 scFv with A159T, S180K, Y183W, H192G
B11: TPP-7797 scFv with C-terminal 6xHIS tag (scFv)
scFv: B3 scFv with T52F, L53R, A159T, H192G, Q223W, T226R
B12: Fab papain 6C12-24 (Fab, V domains shown)
VH: B1 VH
VL: DIQLTQSPSFLSASVGDRVTITCSAASSVSYIYWFQQKPGKAPKLLIYSTSTLPSGVPSRFSGSGSGTEYTLTISSLQPEDFATYYCHQRNSFPFTFGQGTKLEIK
notes: also called parent: Fab 6C12-24

Target: T1, purified human glycophorin A protein (Sigma, cat # G5017) (human, UniProt P02724 20-150)
T1 construct: mature; also called Sigma hGPA; Sigma GPA
T1 sequence (looked up): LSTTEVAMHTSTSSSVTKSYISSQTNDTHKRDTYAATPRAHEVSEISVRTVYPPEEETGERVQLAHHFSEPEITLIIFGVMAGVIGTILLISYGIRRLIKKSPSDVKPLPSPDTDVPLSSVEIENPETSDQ
Experiment: ELISA, native hGPA

Compared with B1, B2 is lower in “binding by ELISA relative to parental” value: 1.62 for the first, 1.45 for the second.

Target: T2, human glycophorin A on human red blood cells or red blood cell membranes (human, UniProt P02724 20-150)
T2 construct: whole, on cells; also called hRBC; human RBC membranes
T2 sequence (looked up): T1 sequence (looked up)
Experiment: scFv on intact human RBC, unbound scFv by ELISA; 0 min after 200-fold dilution
Protocol: (§1) RBC diluted to 1/10th of normal hematocrit were incubated with the set of “Top 10” purified scFv antibodies at a final concentration of 7 ug/ml for 1 hour at room temperature on a rotating shaker after which a sample was taken and the RBC were pelleted by centrifugation and the supernatant was collected. The remaining RBC suspension was diluted 200-fold in PBS buffer and incubated for a total of 2 hours at room temperature on a rotating shaker and samples were removed at 0, 5 min, 20 min, 1 h and 2 h and the RBC pelleted and the supernatant collected. […] The percentage that remains bound after dilution is an indication of the overall strength of the binding to human RBC.

First: B3
Second: B4
The “percentage of input scFv antibody bound” value of the first is higher: 97% for the first, 92% for the second.

Going from B5 to B6, the “percentage of input scFv antibody bound” value falls from 100% to 99%.

Going from B7 to B8, the “percentage of input scFv antibody bound” value rises from 85% to 92%.

First: B9
Second: B10
The “percentage of input scFv antibody bound” value of the first is lower: 94% for the first, 97% for the second.

With B11 the “percentage of input scFv antibody bound” value was 98%.

Target: T2, human glycophorin A on human red blood …
Experiment: scFv on intact human RBC, unbound scFv by ELISA; 120 min after 200-fold dilution
Protocol: as §1

Compared with B3, B4 is higher in “percentage of input scFv antibody bound” value: 76% for the first, 79% for the second.

Going from B5 to B6, the “percentage of input scFv antibody bound” value rises from 80% to 87%.

B7 and B8 are the same in “percentage of input scFv antibody bound” value: 85% for the first, 85% for the second.

First: B9
Second: B10
The “percentage of input scFv antibody bound” value of the first is higher: 94% for the first, 92% for the second.

For B11, the “percentage of input scFv antibody bound” value was 97%.

Target: T2, human glycophorin A on human red blood …
Experiment: scFv on intact human RBC, unbound scFv by ELISA; 5 min after 200-fold dilution
Protocol: as §1

Going from B3 to B4, the “percentage of input scFv antibody bound” value rises from 88% to 92%.

Compared with B5, B6 is higher in “percentage of input scFv antibody bound” value: 85% for the first, 99% for the second.

Going from B7 to B8, the “percentage of input scFv antibody bound” value rises from 85% to 91%.

B9 and B10 are the same in “percentage of input scFv antibody bound” value: 94% for the first, 94% for the second.

With B11 the “percentage of input scFv antibody bound” value was 98%.

Target: T3, human glycophorin A in the red blood cell membrane (human, UniProt P02724 20-150)
T3 construct: whole, on cells; used for intact RBC, isolated RBC membranes and transfected cells; the assay field tells which; also called GPA; hGPA
T3 sequence (looked up): T1 sequence (looked up)
Experiment: ELISA, human RBC membranes;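 also: antibodies bound to isolated human red blood cell membrane ghosts coated on 96-well plates, tested 1.5 h at room temperature, bound antibody quantified with a detection antibody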
Protocol: In order to evaluate binding of antibodies to GPA in the native context of the red blood cell membrane we made use of isolated red blood cell membranes, also called red blood cells ghosts. These membranes are prepared by first isolating red blood cells from citrated whole blood. Citrated whole blood is layered on to Ficol and centrifuged at low speed for 20 minutes to pellet the red blood cells. The supernatant containing plasma and other blood cells is discarded and the red blood cell pellet is subsequently washed 3 times in 10 cell volumes of phosphate buffered saline (PBS). A 10 ml pellet of purified red blood cells is resuspended in 30 ml of cold low osmorality 20 mM phosphate buffer (pH7.4) and incubated for 30 mins to break open the RBC. After Centrifugation at 10,000 rpm for 30 min at 5° C. the hemoglobin containing supernatant is discarded. To the membrane pellet another 30 ml of 20 mM phosphate buffer is added and the sample centrifuged again at 10,000 rpm for 30 min at 5° C. to pellet the membrane fraction. This wash and centrifugation step is repeated another 4 times. The red blood cell membranes are then resuspended in 20 mL of PBS to achieve an equivalent of approximately 2.5E9 cells/mL and stored frozen at −20° C. Binding of antibodies to RBC ghost can be measured by ELISA in which the RBC ghost suspension (5×10⁶ in 100 ul PBS) was added to each well of flat bottom 96-well ELISA microtiter plates (2HB, Immunolon) and the plates incubated overnight at 4° C. The plates were blocked with Starting blocking buffer (Thermo Fisher) for 2 hours at room temperature (RT). Antibodies or other test molecules were added to each well and incubated for 1.5 hours at RT. After 4 washes 100 ul of an appropriate detection antibody was added to each well and incubated for 1 hour at RT. After 4 washes the detection antibody was measured using appropriate detection reagents.

First: B1
Second: B2
The “binding by ELISA relative to parental” value of the first is higher: 1.76 for the first, 1.64 for the second.

Target: T3, human glycophorin A in the red blood …
Experiment: SPR (Biacore), single cycle kinetics, human RBC membranes on L1 sensor, Fab flowed over
Protocol: Kinetic analysis of the antibody binding to human red blood cell membranes was also performed using surface plasmon resonance (SPR) using a Biacore instrument. In this assay membranes prepared from human red blood cells were attached to a L1 sensor matrix and antibodies were flowed over the RBC membranes.

B1 and B2 are within 1.5-fold of each other in Kd: 25 nM for the first, 34 nM for the second.

B12 was tested, and the Kd was 130 nM.

B1 and B2 are within 1.5-fold of each other in koff: 0.019 s⁻¹ for the first, 0.021 s⁻¹ for the second.

B12 was tested, and the koff was 0.048 s⁻¹.

B1 and B2 are within 1.5-fold of each other in kon: 740000 M⁻¹ s⁻¹ for the first, 610000 M⁻¹ s⁻¹ for the second.

For B12, the kon was 370000 M⁻¹ s⁻¹.

Target: T4, recombinant human GPA ectodomain (human, UniProt P02724 20-91)
T4 construct: also called recombinant hGPA ECD; recGPA
T4 sequence: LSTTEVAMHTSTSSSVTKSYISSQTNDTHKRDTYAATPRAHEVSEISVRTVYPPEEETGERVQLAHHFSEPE
Experiment: ELISA, rec hGPA ectodomain

First: B1
Second: B2
The “binding by ELISA relative to parental” value of the first is lower: 1.5 for the first, 1.7 for the second.

Target: T2, human glycophorin A on human red blood …
Experiment: scFv on intact human RBC, unbound scFv by ELISA; 20 min after 200-fold dilution
Protocol: as §1

First: B3
Second: B4
The “percentage of input scFv antibody bound” value of the first is lower: 81% for the first, 84% for the second.

Compared with B5, B6 is higher in “percentage of input scFv antibody bound” value: 82% for the first, 99% for the second.

Compared with B7, B8 is higher in “percentage of input scFv antibody bound” value: 85% for the first, 87% for the second.

Going from B9 to B10, the “percentage of input scFv antibody bound” value falls from 94% to 93%.

For B11, the “percentage of input scFv antibody bound” value was 98%.

Target: T2, human glycophorin A on human red blood …
Experiment: scFv on intact human RBC, unbound scFv by ELISA; 60 min after 200-fold dilution
Protocol: as §1

First: B3
Second: B4
The “percentage of input scFv antibody bound” value of the first is lower: 79% for the first, 81% for the second.

Compared with B5, B6 is higher in “percentage of input scFv antibody bound” value: 84% for the first, 94% for the second.

Going from B7 to B8, the “percentage of input scFv antibody bound” value rises from 85% to 89%.

Going from B9 to B10, the “percentage of input scFv antibody bound” value falls from 94% to 93%.

B11 was tested, and the “percentage of input scFv antibody bound” value was 99%.

Target: T2, human glycophorin A on human red blood …
Experiment: scFv 7 ug/ml on intact human RBC, unbound scFv by ELISA; pre-dilution
Protocol: as §1

Compared with B3, B4 is lower in “percentage of input scFv antibody bound” value: 98% for the first, 92% for the second.

Going from B5 to B6, the “percentage of input scFv antibody bound” value falls from 100% to 99%.

Compared with B7, B8 is higher in “percentage of input scFv antibody bound” value: 85% for the first, 92% for the second.

Going from B9 to B10, the “percentage of input scFv antibody bound” value rises from 94% to 97%.

B11 was tested, and the “percentage of input scFv antibody bound” value was 98%.
